For orientation: koff means the rate constant with which the complex falls apart. In general, Kd refers to the equilibrium constant for the complex coming apart. A word on the kon: it is the rate constant with which the complex forms. Low readings indicate slow association, high ones fast association.

This test addresses Cry1Aa toxin-binding region of BtR175 (BtR175-TBR) (Bombyx mori) (UniProt Q9XY09). The test can be described thus: SPR.
Take “Cry1Aa loop 3 mutant H^439MPR^442 (from UniProt P0A366 1-1176) (ligand)”: the koff was 0.00105 s⁻¹.

Consider “Cry1Aa loop 3 mutant Q^439PRG^442 (from UniProt P0A366 1-1176) (ligand)”, for which the koff was determined as 0.00162 s⁻¹. Substance “Cry1Aa loop mutant A^310QMA^313 (from UniProt P0A366 1-1176) (ligand)” displayed a Kd of 16 nM. “Cry1Aa loop mutant D^439TGN^442 (from UniProt P0A366 1-1176) (ligand)” displayed a Kd of 13.5 nM and a koff of 0.00162 s⁻¹.

Turning to “Cry1Aa loop mutant E^439PPA^442 (from UniProt P0A366 1-1176) (ligand)”, the Kd was 11.6 nM and the kon came out at 121000 M⁻¹ s⁻¹. Take “Cry1Aa loop mutant G^435LVG^438 (from UniProt P0A366 1-1176) (ligand)”: the Kd was 13.5 nM and the koff came out at 0.00559 s⁻¹. On to “Cry1Aa loop mutant I^443VPV^446 (from UniProt P0A366 1-1176) (ligand)”, for which the Kd was found to be 19.9 nM, the koff is 0.00316 s⁻¹ and the kon amounted to 158000 M⁻¹ s⁻¹. “Cry1Aa loop mutant L^367PRP^370 (from UniProt P0A366 1-1176) (ligand)”: the Kd was 13.3 nM. In the case of “Cry1Aa loop mutant P^367RRP^370 (from UniProt P0A366 1-1176) (ligand)”, the Kd came to 12.1 nM.

The substance “Cry1Aa loop mutant S^371APN^374 (from UniProt P0A366 1-1176) (ligand)” displayed a Kd of 13.3 nM. Turning to “Cry1Aa loop mutant S^435VVG^438 (from UniProt P0A366 1-1176) (ligand)”, the equilibrium dissociation constant (Kd) was determined as 19.9 nM and the koff is 0.00379 s⁻¹. For the substance “Cry1Aa loop mutant T^439LRT^442 (from UniProt P0A366 1-1176) (ligand)”, the Kd was found to be 10.5 nM, the koff was 0.00158 s⁻¹ and the on-rate constant (kon) stood at 151000 M⁻¹ s⁻¹.

The substance “Cry1Aa loop mutant V^443ELL^446 (from UniProt P0A366 1-1176) (ligand)” returned a Kd of 20.4 nM, a koff of 0.00272 s⁻¹ and a kon of 133000 M⁻¹ s⁻¹.

The record behind these values is paper PMC3546355.
